From patent US20100158924A1, “Expression of the cysteine protease legumain in vascular and inflammatory diseases” (Wyeth, LLC, priority 2006, published 2010)
* marks the point of attachment. Fmoc = O=C(OCC1c2ccccc2-c2ccccc21)*

How the values were obtained:
mouse legumain = molecular target: T1, mouse legumain (Mus musculus, UniProt O89017); assay: HEK293 cell-surface legumain activity assay (Z-AAN-MCA hydrolysis); assay type: cell-based; settings: inhibitor at 100 nM, live HEK293 cells overexpressing mouse legumain, pH 5.8, FIG. 7
T1 construct: expressed in transfected cells; host or cells: HEK293 cells infected with adenovirus
T1 sequence (O89017 18-325): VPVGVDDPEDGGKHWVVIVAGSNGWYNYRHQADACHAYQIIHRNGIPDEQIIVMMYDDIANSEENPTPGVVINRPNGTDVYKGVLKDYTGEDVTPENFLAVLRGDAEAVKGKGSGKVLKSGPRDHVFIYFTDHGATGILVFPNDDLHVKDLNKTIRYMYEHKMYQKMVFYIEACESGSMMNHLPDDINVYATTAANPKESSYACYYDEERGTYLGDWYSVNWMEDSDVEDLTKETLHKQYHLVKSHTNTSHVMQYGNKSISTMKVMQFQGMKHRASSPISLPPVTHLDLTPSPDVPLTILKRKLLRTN
Procedure: HEK293 cells were plated in 96-well black tissue culture plate (BD Biosciences) and infected with adenovirus expressing mouse legumain at MOI of 10. 24 hours post infection, the cells were washed once with legumain assay buffer [39.5 mM citric acid, 125 mM Na2HPO4 (pH 5.8), 1 mM EDTA, 0.8% NaCl], and 50 μl of assay buffer containing 10 nM of the substrate Z-AAN-MCA (Peptide Institute, Louisville, Ky.) was added to each well. The protease inhibitors cystatin C(R&D Systems, Minneapolis, Minn.) or E64 (Sigma) were included in the assay buffer at a concentration of 100 nM. The plates were incubated at 37° C. for 10 min and measured for fluorescence in a VICTOR 3™ fluorescence plate reader (PerkinElmer, Wellesley, Mass.) using an excitation filter of 360 nm and an emission filter of 460 nm. Repeated measurements were carried out once every 5 min over a period of 20 min at room temperature. The increase of fluorescence over time was plotted.

legumain = settings: background literature; cited from earlier work
HUVECs [1] = assay: In vitro wound-healing assay, HUVECs; assay type: cell-based, human
Procedure: (§1) HEK293 cells (ATCC, Manassas, Va.) used at passage 10 and HUVECs (Cambrex, Walkersville, Md.) used at passage 3 were seeded onto single-chamber slides (Lab-Tek cat# 177410, Campbell, Calif.). HEK293 cells were cultured to >80% confluence in DMEM supplemented with 10% FBS and 1% penicillin/streptomycin/L-glutamine (Cat# 10378-016, Gibco, Invitrogen, Carlsbad, Calif.), and HUVECs were grown to >90% confluence in EGM (Cat# CC-3124, Cambrex, East Rutherford, N.J.). After washing the cells in serum-free medium, the monolayers were mechanically wounded using a cell scraper (Cat# 3010, Costar [Corning], Fisher Scientific, Pittsburgh, Pa.) to obtain a rectangular denuded area of 2.0×1.7 cm^2. Wounded cells were then incubated in serum-free medium supplemented with 0.05% delipidized BSA (BD Biosciences, Bedford, Mass.) and with VEGF (10 ng/mL, R&D Systems, Minneapolis, Minn.) or legumain (10 ng/mL or 25 ng/mL, R&D Systems, Minneapolis, Minn.) for 24 hours (HEK293 cells) or 20 hours (HUVECs). Wound healing was quantified by measuring the number of cells present in the area of the initial wound using a luminescent cell viability assay (CellTiter-Glo® Assay, Promega, Madison, Wis.).

primary human monocytes = assay: Human monocytes migration assay (modified Boyden chamber); assay type: cell-based; settings: for chemoattractant function: data not shown
Procedure: Human monocytes were isolated from the blood of healthy donors using the negative selection method with the Monocyte Isolation Kit (Miltenyi Biotech) according to manufacturer's instructions. The purity of isolated monocytes was confirmed by flow cytometry on CD 14-stained cells. Cells were tested in a modified Boyden chamber assay using Multi Screen 96-well filtration plate (Millipore, 5.0 μm pore size). Serum-starved monocytes were added to the top chamber (20,000 cells/well), and serum-free culture medium was added to the bottom chamber with or without purified legumain (R&D Systems). VEGF (R&D Systems) was used as a positive control. Cells that migrated into the bottom chamber were quantified using a luminescent cell viability assay (CellTiter-Glo® Assay, Promega, Madison, Wis.) at 2 hours.

HUVECs [2] = assay: Modified Boyden chamber Matrigel invasion assay, HUVECs; assay type: cell-based, human
Source text: In a modified Boyden chamber assay, 25,000 serum starved HUVECs loaded into the top chamber were allowed to invade a Matrigel coated PET membrane ([…], Becton Dickinson, BioCoat Angiogenesis System: Endothelial Cell Invasion) in response to purified legumain added to the bottom chamber. Cells that invaded through the Matrigel matrix were quantified using a luminescent cell viability assay (CellTiter-Glo® Assay, Promega, Madison, Wis.). VEGF was used a positive control.

HEK293 cells = assay: In vitro wound-healing assay, HEK293 cells; assay type: cell-based, human; settings: legumain at 10 ng/mL and 25 ng/mL, 24 hours, p<0.05, FIG. 8
Procedure: as §1

With `CC(C)C[C@H](NC(=O)[C@H]1O[C@@H]1C(=O)O)C(=O)NCCCCN=C(N)N` (relative stereo) [E64, trans-epoxysuccinyl-L-leucylamido-(4-guanidino)butane, reference compound] as the molecule, how does the “inhibition of cell-surface legumain activity” value (mouse legumain) read?
The value was “not”.

And the “effect on legumain activity” value (legumain)?
Its value is “unaffected”.

With `[Cu+2]` [Cu2+] as the molecule, how does the “effect on legumain activity” value (legumain) read?
The value was “inhibition”.

Which “effect on legumain activity” value (legumain) does the source give for `[Hg+2]` [Hg2+] here?
Its value is “inhibition”.

With `Cc1cccc(C)c1C(=O)OCC(=O)C(CC(N)=O)NC(=O)OCc1ccccc1` (stereo not shown) [MV026630, 2,6-dimethyl-benzoic acid 3-benzyloxycarbonylamino-4-carbamoyl-2-oxo-butyl ester] as the molecule, how does the “effect on legumain activity” value (legumain) read?
The value was “inhibit”.

Which “effect on legumain activity” value (legumain) does the source give for `C[C@H](NC(=O)[C@H](Cc1ccccc1)NC(=O)OCc1ccccc1)C(=O)C=[N+]=[N-]` [Z-Phe-Ala-CHN2] here?
The value was “unaffected”.

With `CC(=O)N[C@@H](CC(C)C)C(=O)N[C@@H](CC(C)C)C(=O)N[C@H](C=O)CCCNC(=N)N` [leupeptin] as the molecule, how does the “effect on legumain activity” value (legumain) read?
Its value is “unaffected”.

For `O=S(=O)(O)c1cc[c]([Hg][Cl])cc1` [p-chloromercuribenzene-sulfonic acid], which “effect on legumain activity” value (legumain) is on record?
The value was “inhibition”.

Which “effect on legumain activity” value (legumain) does the source give for Fmoc-AENK-NH2 here?
The value was “inhibitor”.

For VEGF [reference compound], which “increase in migration compared with legumain at 25 ng/mL” value (HUVECs [1]; VEGF at 10 ng/mL, positive control, FIG. 9) is on record?
Its value is “same extent”.

What about the “number of migrated cells compared with legumain at 25 ng/mL” value (primary human monocytes; VEGF at 10 ng/mL, positive control) of the same molecule?
The value was “similar”.

What about the “invasion response compared with 25 ng/mL legumain” value (HUVECs [2]; 10 ng/mL VEGF, 22 hour period) of the same molecule?
The value was “similar”.

B1: ovocystatin: cystatin reported to inhibit legumain (protein, UniProt P01038 24-139, looked up)
Cystatin: SEDRSRLLGAPVPVDENDEGLQRALQFAMAEYNRASNDKYSSRVVRVISAKRQLVSGIKYILQVEIGRTTCPKSSGDLQSCEFHDEPEMAKYTTCTFVVYSIPWLNQIKLLESKCQ
With B1 as the molecule, how does the “effect on legumain activity” value (legumain) read?
Its value is “inhibited”.

B2: heat-denatured form: heat-denatured form of legumain (protein, UniProt Q99538 18-323, looked up)
Legumain: VPIDDPEDGGKHWVVIVAGSNGWYNYRHQADACHAYQIIHRNGIPDEQIVVMMYDDIAYSEDNPTPGIVINRPNGTDVYQGVPKDYTGEDVTPQNFLAVLRGDAEAVKGIGSGKVLKSGPQDHVFIYFTDHGSTGILVFPNEDLHVKDLNETIHYMYKHKMYRKMVFYIEACESGSMMNHLPDNINVYATTAANPRESSYACYYDEKRSTYLGDWYSVNWMEDSDVEDLTKETLHKQYHLVKSHTNTSHVMQYGNKTISTMKVMQFQGMKRKASSPVPLPPVTHLDLTPSPDVPLTIMKRKLMNTN
modifications: heat-denatured
notes: heat-denatured form of legumain
For B2, which chemoattractant function (primary human monocytes) is on record?
Its chemoattractant function is “retain the chemoattractant function”.

B3: cystatin C: protease inhibitor cystatin C (R&D Systems) (protein, UniProt P01034 27-146, looked up)
Cystatin-C: SSPGKPPRLVGGPMDASVEEEGVRRALDFAVGEYNKASNDMYHSRALQVVRARKQIVAGVNYFLDVELGRTTCTKTQPNLDNCPFHDQPHLKRKAFCSFQIYAVPWQGTMTLSKSTCQDA
Which “inhibition of cell-surface legumain activity” value (mouse legumain) does the source give for B3 here?
The value was “inhibited”.

And the “effect on legumain activity” value (legumain)?
The value was “inhibited”.

B4: legumain: purified proform of the lysosomal cysteine protease legumain (R&D Systems), tested as chemoattractant (protein)
chain: T1 sequence (O89017 18-325)
For B4, which “cell migration relative to control” value (HEK293 cells) is on record?
Its value is “significant increase in cell migration”.

What about the “cell migration relative to control” value (HUVECs [1]; legumain at 25 ng/mL, 20 hours, p<0.05, FIG. 9) of the same molecule?
Its value is “significant increase in cell migration”.

And the “fold increase in migration of monocytes relative to control” value (primary human monocytes; 25 ng/mL, 2 hours)?
The value was 2.3 fold.

And the “migration of human monocytes towards legumain” value (primary human monocytes; Boyden chamber, 2 hours, FIG. 6)?
The value was “dose-dependent increase”.

And the chemoattractant function (primary human monocytes)?
Its chemoattractant function is “retain the chemoattractant function”.

And the “minimal effective concentration of legumain” value (primary human monocytes; migration of primary human monocytes, Boyden chamber, 2 hours)?
The value was 25 ng/mL.

What about the “number of cells invading a Matrigel coated membrane” value (HUVECs [2]; 22 hour period, FIG. 10) of the same molecule?
The value was “dose-dependent increase”.

And the “cell invasion relative to control” value (HUVECs [2]; legumain at 25 ng/mL, p<0.05, FIG. 10)?
Its value is “significant increase in cell invasion”.

B5: cystatin M: cystatin reported to inhibit legumain (protein, UniProt Q15828 29-149, looked up)
Cystatin-M: RPQERMVGELRDLSPDDPQVQKAAQAAVASYNMGSNSIYYFRDTHIIKAQSQLVAGIKYFLTMEMGSTDCRKTRVTGDHVDLTTCPLAAGAQQEKLRCDFEVLVVPWQNSSQLLKHNCVQM
For B5, which “effect on legumain activity” value (legumain) is on record?
The value was “inhibited”.
